According to the DeepSol protein solubility set:

Assay: soluble on expression in E. coli; label from the status in PepcDB or PDB records

Sequence | soluble on expression in E. coli
MRGNKGGERSRTFTVQARIVGRWQHPCSPRPEGRVHPQLPPHAAATRLACVRLYKHCGICGTPTHAVSHRNDTHDGDSAPTRCPRAEMPLSKKSSSLRQAIPCSVLFAADPLQVPSNACVGNRLSTVRRQHQFSASRHTKHAPSVAEDGNGIPRPPPVSVGAGVVDNANEPFAEYARLSTSLASRAHVEPFSSAPMSSFASCPYVAASSHGSTTMSKALRRLPTTVTALPGMAPPPPTISAAVPRNGHRTAGRTSAPLRVHLVHRTRSPPGLAHSPPAYSSTVTTSMPHEIPPTSALVLPYCTDAQLRNLFATLFVRTGDATWSVHQHILPFLTVRQHCNLSAAPSQVTAFFGLTSHSDEDVHEKGATGAAGHQGEQAFFGGPWATKEMNRVASQLCYSFVYVGILGCGEEMCWDTLPMPLGGIPALARRSPVRNAYNTGSTSASQSPVTRSSSSSAHPATPEKQCLCPTPHRSLRNSPCVSSSALGVVALMEGLKQHQPSRMVEDGGADDDEGGPKSTVLYHTDQLESSTLDVVTTSTLTSVEFRGVVEAPPLVQEVAFVRGATRSYKLSWETARGSLHT | soluble
MKQRPIPRPQTDTTAALQALADALACLRNSATVLAFLRDLCTPAELEALADRWRVVPLLLQGRPYRDIHDHTGISVTTIGRVARCLEHGTGGYAAVLQAQAMPPASSIEKPQ | not soluble
MGSDKIHHHHHHKETSEKPVLFPDYADVTIPYNIAPLNFKIENPHAEAFAVLKFGEEKIQVKEKGGQFYLPASDWRKLLKRATGKAIQVKLYAKDKEWLAYPEFSLFVAPEPMDSYLAYRLIEPGYELWNQMGIYQRNLEDYKQSPIMENKYSGQNCMNCHSFCMQNPDKMLFHMRDKYSGTYLIDGDKIEKLNTKTDQTISPLVYPSWHPSGKYVAFSVNQTSQSFHANDKNRVEVFDSQSDVVVYDTEKHEIISTPSIRTAKAFETFPTFSPDGKTLYFCSAEARSMPHEYSEVKYNLCSIAFDPVTRSFGSRIDTLYNAGKDGKSASFPRVSPDGKFLLYTLSGYGNFSIWHKDADLYLLDIASGISHSLQNANSTDTESYHSWSSNSRWIVFSSRRIDGLYTRPYFAYIDEEGNASKPFLLPQKDTDYYHRFMKSYNIPEFITGKVSSKIRALSTLAKEDKGIDVTYRK | not soluble
MGSDKIHHHHHHMIDNIMAILEPVIGRTIKRKISTMSGKKLPFIAGHKLLYTCNLRCDMCPFWRRKDEKLLSLEEEIKMMDSLASAGVSFMGFEGGEPLLRNDLEDILKESHKRFHTSLVTNGWLLKGRASSISRYLDYLFVSIDGRKETHDKQRGVPSSFDHAIEGIKEAKKYVPVAMSTTITTNNMDDIKYVVNLAEELGIGVNIQVSYDYSTADKLSPDRKKLYDLLLDLKKMKEDGAPIVNSKEYFDTLVNSWYYGIPWACKPWSTVNIDPQGRIVMPCYVLNEYAGEKKVWEIDIKELWNTYDWKPYESCNKCSLSCYLEPSIFSWRKPSMVSERIFGSIADYIASIF | not soluble
MATKTKTTEAPVLPLNQILAGDCIETMRSLPECSVDLIFADPPYNLQLRGDLHRPDNSRVDAVDDHWDQFSSFSVYDQFTREWLAAARRLLKPNGAIWVIGSYHNIFRVGAALQDQGFWILNDVVWRKSNPMPNFKGKRLTNAHETLIWASKQEASKYTFNYEALKALNEGVQMRSDWVIPICTGHERLKDEQGDKAHPTQKPEALLHRVMVATTNPGDVVLDPFFGTGTTGAVAKMLGRDFIGIEREESYRRIAAERLSRVRRYDASALEVSGSKRAEPRVPFGQLVERGMLRPGEELYSMNNRHKAKVRADGTLIGNDVKGSIHQVGAALEGAPSCNGWTYWCYKREGKMIPIDILRQQIRAEMEDPRPN | not soluble
NSKKETVTVGVLQFVSHPALDEIYKGVEEGLKENGYDKGKNLEIIFQNGQADQSKLAIMSQQLVQKKADVLIGIATPAAQALANTTQEIPIILGAITDPVSAGLVKDNQKPGGNITGVSDQSPLSAQMDLLKELIPAAKKIGILYASSEENSRYQVAEAQKAAEAKGLTVKTYAVPSSNEIAQTVQVMTKETDVIYIPTDNTIANAMQTVVGEANRTKTPIIPSVDTMVEQGGLATVGINQHALGVQAGKMAAEVLSGKSQPATTPIYTFNTGDTIINEKQAQKLGITIPAELAKKSKLIN | not soluble
GSPALDTGTTEEDRLKIDVIDWLVFDPAQRAEALKQGNAIMRKFLASKKHEAAKEVFVKIPQDSIAEIYNQCEEQGMESPLPAEDDNAIREHLCIRAYLEAHETFNEWFKHMNSVPGGSGGSWKGHLDALTADVKEKMYNVLLFVDGGWMVDVREDAKEDHERTHQMVLLRKLCLPMLCFLLHTILHSTGQYQECLQLADMVSSERHKLYLVFSKEELRKLLQKLRESSLMLLDQGLDPLGYEIQL | soluble
MGSDKIHHHHHHMSIDFYNQNASSFYASTVEVDSSSLLEQFTPYLPKGGSVLDAGCGSGRDSKRLIELGFHVDAFDASAALATLAQQLLGKPVRVATFMQFTSTLQYDGIWACASLLHVSKASLPDAFAHLASMLKSGGAFYCSFKYGQGEVERDGRSFTHCDEALLAELLTGSPLVIDKVWLTTDLRVGRENEQWLNAVLLKR | not soluble
MSLRVIDTHCDALYKLQAGKGKYTFQDAEELDVNFERLIEAKMLLQGFAIFLDEDIPVEHKWKKAVEQVNIFKQHVLHKGGIIHHVKKWCDLENLPEDKIGAMLTLEGIEPIGRDLDKLTQLLDGGVLSVGLTWNNANLAADGIMEERGAGLTRFGKDIIHLLNERKVFTDVSHLSVKAFWETLEQAEFVIASHSSAKAICAHPRNLDDEQIKAMIEHDAMIHVIFHPLFTTNDGVADIEDVIRHIDHICELGGMKNIGFGSDFDGIPDHVKGLEHAGKYQNFLETLGKHYTKEEVEGFASRNFLNHLPKEGHHHHHH | soluble
MSLKKILVQWKNGPSQIGRMYPLPVFDEHDIVQLCSEVKDILRIQPAVIQRKPGVIIVGDLHGNFLNFLQIFAIHGLPPNQNYIFLGNYINYGEFSLEVVIYLFSLYYLFPSNISLLRGSTEFYPSKGPRSLSSNIDTTYGPNSILKSVFLETFTYLPIACLIGNSVLCSRSSLVSRYSNLQEIFHETLPIPCVVDQSHLFLSGLANVIPSEEVLEEFLATNNLNFLIFGGKNAGDGVENMLDDRCYALASDAHMGYCGIINLVGNQPPFAIIFTPDSDLLRENAQMLREGHHHHHH | not soluble
MGSDKIHHHHHHMKAYYHLPGLFEFYELYKEFLPLYRKHREYFYDWCDIGSIYGAPADCIWGGGRVGFGEHDLKEVLKLMQEYGISARLTFSNSLLTKEHLPDKKCNELCRIFDIGRDNERSRGFGNGIIIYSDILLDYIKENYPDFYFVSSTTKVLTDFSEFKNELNREEFRYVVPDFRLNKSFDNLKALSQHQKEKVEFLCNECCWFGCTDRKKCYETVSRKNLGVDCPEHYCVAPDSGQGYLFSKAMENPGFIGVYDIKNTYLPMGFSNFKIEGRGLGSAMILEFLLYYMTKPQYQIHVREHIYLDNMLDLF | not soluble
MSLDAISAATHSDPYFYYTRLRARGGLTYDCALRLWVASSAAAVAAVLDHPACQVRPSTEPVPQAIAGRPAGQLFGRLMRMNDGPRQRCPRAAIEPALQGLCTAGLETHLARWQPALAGPACAADLQRWQFVLPVALLASLLGVPAEQCETLARRTGEFVACFSPLSDQPRLQAADRAALELDAQMQALVQAPQHSPLLRQILDRSGELAPADLRANLAGLLAQTHDACAGLVGNSLVALLAAPAMQQRLRQEPGLLGDWLLERQRLDPPVQNTRRFVTAPCTVHGVELQAGETILVLLAAANQDPALAAITGSNPAHQGFSFGAGAHRCPGRELALGIVRCLLHALLQGPGLDALALDWQYQASVNGRIPLFSDRGEAEGHHHHHH | not soluble
MGSDKIHHHHHHMNFSTTEIQTIFNANEAASAVLNQALEAAAQGTFAVGGMIVDNQTGNVICAMHNNVLKPLFGSSQNFTFDPTAHGERQLVYWYYANRHQLNLPDPEYLTIITTLDPCAMCAGTLLTAGFNVGVIAIDDFAGINYNQTFNFDTLPPDLRPLAKRKFGYYACGIKGVDPDIYVRGYVGGPNVAFKDSVVSVQNLTGCNNVFQANVEAVRNNSSNSGKAPQELFDPAALPDDAPVKLRYRELYADAFRLKIDNPRLPDKNLLDLLLYVKGSNPTAQNAVALLDPFGNVVLCMPDTFENSPVETAFMNVTQAYAITRYQLMNDPFARAQAYDYLTHPKYGTFVFLNAPNPADARTIMTLGAYGSTMEGPVPQIFPSNFQYYFLPQYGTEREFRLDIMNLPPFYTQLAQLSAMQVANY | not soluble
MNPKIEDSEFNWENEDIVMKLVDEKGKAHPVSKAELLESLESRKLGLETRVLDKYHENHVAFENVLVLDAPQDLETIVNLLLPWYMGKTLTLFEGPLNYPDSSRLAQIISKHNVDIVLGSDYNYSIPNPEYLKLFPVPSLKLVDLPNFESISNYLTISR | not soluble
MSLNYLSGQAANPRGIIGEITTKIWSSYFEDLSKWTINNTEMAGVTKVLDVGYGGGSNVKNLVNLDQNLTIYGIDISKESYKTASALNKKAISDGKVKLTVADVADMDYREESFDLVYAIQTHMYWDNLQKGFEEIYRVMSQEGVLILSSEKDKIDYHMDEYKTTASLTALLKEIGFREVVEKEKGNWVLYTVKKEGHHHHHH | soluble
MAKYEILFKQLRLAILRGEYAPNDRLPSENAIAIKHGVSRITSKRALNELAAADLVYRVRGGGTFVKPHKSTTQRQILLVLPFPETTSFGDYPSGIQGTLAGTTWQLKLMANERFIQLNLDELASQYAGIIYYPQNLATELPILMRLYAQKMPLVVLDKQPAALAVPSVTSDNVAGGKIACEHLQSRGHHRIAFLPETPFWQTFTGTVSDRFLGYFNHLKLATSDAALPLRWAQALQACTTAVQLKAYIQAQRITAIIAENDVVALRALQRIQELTSNSDTSIALVGFDNLPAAARNNPALTTVVQDFAAIGAKAVEALLDQINNPEHLFDDQIVVGVKLMVRSSTNQY | not soluble
MGSDKIHHHHHHMTLNNLEIDTLVVGAGQAGVAMSEHLSKLGVPHLVLERNRIAQAWRTGRWDSLVANGPAWHDRFPGLEFNLDADAFAGKDQVADYFEQYVRKYNLPVRTGIEVKRVVRNSDRPGFTIDTSEGVIRANRVVAATGPFQKPVIPAIAPKDSNLHQIHSAAYFNPEQLPEGAVLVVGAGSSGVQIAEELMRAGRQVYLSVGAHDRPPRAYRNRDFCWWLGVLGEWDAEIAKPGREHVTIAVSGARGGHTVDFRALAHQGMTLVGLTQSFENGVARFQDNLVENINRGDDNYLALLDAADAYIERNGLDLPEEPEARQRLADPECMRNPLQQLDLAKAGVSSIIWATGYGVDFSWLQVDTFDANGKPQHQRGVAREPGVYFLGLPWLSRRGSSFIWGVWHDAKHVAGHIATQRTYTAYRDREQRAADEQQTAKISNVSTLGAH | not soluble
MGGSHHHHHHGMASALGADGFVPLGTLLQLPQFRGFSAEDVQRVVDTNRKQRFALQLGDPSTGLLIRANQGHSLQVPKLELMPLETPQALPPMLVHGTFWKHWPSILLKGLSCQGRTHIHLAPGLPGDPGIISGMRSHCEIAVFIDGPLALADGIPFFRSANGVILTPGNTDGFLLPKYFKEALQLRPTRKPLSLAGDEETECQSSPKHSSRERRRIQQ | not soluble
NFLDFEKPIVELETKIQALRDVSRHSTSASVDLDKELEQLEKKSLELKKKIFSDLGAWQVAQLARHPQRPYTLDYLKHIFTEFDELAGDRAYADDKAIVGGIARLEGRSVMVIGHQKGRETREKVKRNFGMPKPEGYRKALRLMEMAERFNM | not soluble
